Laboratory results reported in patent KR20120084755A.

molecular target: RSV A2 바이러스의 F 단백질 (Respiratory Syncytial Virus (RSV), strain A2) (UniProt P03420); assay: cell-based or functional assay
Sequence of UniProt P03420 (P03420 26-574): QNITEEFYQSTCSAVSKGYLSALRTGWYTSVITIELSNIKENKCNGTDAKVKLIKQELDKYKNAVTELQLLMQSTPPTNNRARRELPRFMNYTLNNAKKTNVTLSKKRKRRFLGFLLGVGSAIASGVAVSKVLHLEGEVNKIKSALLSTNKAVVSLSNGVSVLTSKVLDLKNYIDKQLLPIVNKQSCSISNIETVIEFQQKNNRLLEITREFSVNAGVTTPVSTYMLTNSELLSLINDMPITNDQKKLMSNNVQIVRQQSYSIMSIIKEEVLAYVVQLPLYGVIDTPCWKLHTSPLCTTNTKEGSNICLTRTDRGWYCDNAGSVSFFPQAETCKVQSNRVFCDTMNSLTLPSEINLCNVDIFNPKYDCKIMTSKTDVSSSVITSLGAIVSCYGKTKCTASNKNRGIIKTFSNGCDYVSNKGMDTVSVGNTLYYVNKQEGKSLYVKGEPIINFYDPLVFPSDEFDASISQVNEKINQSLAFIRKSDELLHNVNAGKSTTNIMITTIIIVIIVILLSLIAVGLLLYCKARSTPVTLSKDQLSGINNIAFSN

Row | Substance | IC50, RSV A2 neutralisation on HEp2 cells (standard TCID50 culture assay) [ng/㎖]
1 | AM16 (antibody) | 78.7
2 | AM23 (antibody) | 4.18
3 | D25 (antibody) | 1.28
4 | 팔리비주마브(Palivizumab) (antibody) | 152
